US20090130105A1 (Biogen, published 2009)
Positions count from the first letter of the chain named. Numbers in names are those of the source.

What was measured:
human IGF-1R(1-903)-Fc [1] = target: T1, human IGF-1R(1-903)-Fc (human, UniProt P08069 31-933); assay: biolayer interferometry (Octet), IGF-1R Fc on Protein A sensors, scFv culture supernatant; parameters: unit not given here
T1 construct: also called hIGF-1R-Fc; SDWT; not shown: human IgG1 Fc, C-terminal tag
Source text: Individual transformed colonies were picked into deep-well 96 well dishes and processed for screening as described above. […] For off-rate analyses IGF-1R Fc was immobilized onto the surface of Protein A biosensors. […] ScFvs were allowed to bind to immobilized IGF-1R Fc for 300-seconds. Off-rate was subsequently assayed for 600 seconds.

human IGF-1R(1-903)-Fc [2] = target: T1, human IGF-1R(1-903)-Fc; assay: competition ELISA: antibody diluted in 320 nM human IGF-1 His, added to biotinylated hIGF-1R-Fc on streptavidin plates, bound IGF-1 His detected with anti-His-HRP (blocked ligand: IGF-1 His)
Description: (§1) hIGF-1R-Fc was biotinylated using EZ-Link Sulfo-NHS-LC-Biotin according to the protocol provided by the manufacturer (Pierce Cat. No. 21335). Biotinylated human IGF-1R Fc (NB12453-9) at 5 μg/ml was added to the wells of SigmaScreen streptavidin-coated 96-well plates (Sigma, Cat. No. M5432-5EA) at 100 μL/well and incubated overnight at 2-8° C. The plates were then washed four times with 200 μL/well PBST. […] The dilutions were added to the plates in duplicate at 100 μL/well and the plates were incubated at RT for 1 hour. The plates were then washed four times with 200 μL/well PBST. An HRP-conjugated anti-Histag antibody (Penta-His HRP Conjugate, QIAGEN, Cat. No. 1014992) was diluted 1:1000 in PBST and added to plates at 100 μL/well, and the plates were incubated at RT for one hour. The plates were then washed four times with 200 μL/well PBST. SureBlue Reserve TMB Microwell Peroxidase Substrate (KPL, Cat. No. 53-00-01) was added to plates at 100 μL/well followed by 1% phosphoric acid at 100 μL/well once the desired reaction was observed. The absorbance of each well was determined at 450 nm, and the results were normalized and plotted against the log of antibody concentration.

human IGF-1R(1-903)-Fc [3] = target: T1, human IGF-1R(1-903)-Fc; assay: competition ELISA: antibody diluted in human IGF-2 His solution, added to biotinylated hIGF-1R-Fc on streptavidin plates, bound IGF-2 His detected with anti-His-HRP (blocked ligand: IGF-2 His)
Description: as §1

[4] = target: T2, hIGF-1R-Fc mutant SD103 (D461A, V462T) (human, UniProt P08069 31-933); assay: SPR, immobilized antibody
T2 construct: not shown: human IgG1 Fc, C-terminal tag
Description: Surface plasmon resonance (SPR) experiments were performed on a Biacore 3000 instrument set to 25° C. […] The antibody sensorchip surfaces were prepared by injecting each antibody (diluted 100 μg/mL in 10 mM Acetate, pH 4.0) over EDC/NHS-activated sensorchip surfaces according to the standard protocol of the manufacturer. […] Both hIGF-1R-Fc and mIGF-1R-Fc proteins oligomerize due to the incorporation of two separate homodimeric regions (IGF-1R and IgG1-Fc). […] After, completion of the receptor-Fc loading step, flow rates were elevated to 5 μl/min. […] Dissociation was measured for 7 minutes after the antibody injections were complete. Finally, the flow rate was elevated to 30 μL/min and the chip surfaces were regenerated by 2×10 μL injections of 0.1 M glycine, pH 2.

T1 sequence (P08069 31-933): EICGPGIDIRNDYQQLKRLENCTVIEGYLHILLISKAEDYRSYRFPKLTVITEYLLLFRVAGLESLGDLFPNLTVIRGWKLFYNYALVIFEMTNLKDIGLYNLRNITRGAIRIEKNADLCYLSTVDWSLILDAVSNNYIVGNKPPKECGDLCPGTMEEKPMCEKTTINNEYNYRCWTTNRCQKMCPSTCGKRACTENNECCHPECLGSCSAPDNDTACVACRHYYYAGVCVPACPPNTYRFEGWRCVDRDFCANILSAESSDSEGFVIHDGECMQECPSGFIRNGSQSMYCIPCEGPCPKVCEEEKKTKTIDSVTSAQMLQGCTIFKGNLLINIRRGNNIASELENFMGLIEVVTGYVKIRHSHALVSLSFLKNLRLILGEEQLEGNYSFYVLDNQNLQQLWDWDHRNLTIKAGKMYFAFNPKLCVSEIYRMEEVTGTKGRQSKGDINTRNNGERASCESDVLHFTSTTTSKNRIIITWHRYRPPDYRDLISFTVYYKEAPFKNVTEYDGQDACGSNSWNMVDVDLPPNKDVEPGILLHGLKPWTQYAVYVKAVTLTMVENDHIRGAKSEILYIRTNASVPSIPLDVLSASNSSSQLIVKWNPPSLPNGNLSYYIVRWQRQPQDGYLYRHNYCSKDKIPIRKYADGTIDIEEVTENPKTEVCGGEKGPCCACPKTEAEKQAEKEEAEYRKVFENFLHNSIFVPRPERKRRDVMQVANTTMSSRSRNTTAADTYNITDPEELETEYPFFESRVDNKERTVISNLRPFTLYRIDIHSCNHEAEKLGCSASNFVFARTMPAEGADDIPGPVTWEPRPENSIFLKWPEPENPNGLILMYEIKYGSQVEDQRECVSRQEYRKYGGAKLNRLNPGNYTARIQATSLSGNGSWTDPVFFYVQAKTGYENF
T2 sequence (P08069 31-933 D491A/V492T): as the sequence (P08069 31-933) above, with D461A, V462T counted along it

B1: conventional C06 (VL/GS3/VH) scFv (pXWU092) (scFv)
scFv: DIQMTQSPLSLSASVGDRVTITCQASRDIRNYLNWYQQKPGKAPKLLIYDASSLQTGVPSRFGGSGSGTDFSFTIGSLQPEDIATYYCQQFDSLPHTFGQGTKLEIKGGGGSGGGGSGGGGSEVQLLESGGGLVQPGGSLRLSCAASGFTFSIYRMQWVRQAPGKGLEWVSGISPSGGTTWYADSVKGRFTISRDNSKNTLYLQMNSLRAEDTAVYYCARWSGGSGYAFDIWGQGTMVTVSS
notes: also called WT C06 scFv
- Kd (1/sec), off-rate as tabulated (XWU092 = 1.00) (human IGF-1R(1-903)-Fc [1]): 1

B2: MJF045, stabilized C06 (I83E) scFv (scFv)
scFv: B1 scFv with I83E
notes: Variant of pXWU092 with VL I83E (Kabat); also called C06 VL I83E scFv
- Kd (1/sec), off-rate as tabulated (XWU092 = 1.00) (human IGF-1R(1-903)-Fc [1]): 1.47

B3: MJF018, C06 (VL/GS3/VH) scFv with VL V15N (scFv)
scFv: DIQMTQSPLSLSASNGDRVTITCQASRDIRNYLNWYQQKPGKAPKLLIYDASSLQTGVPSRFGGSGSGTDFSFTIGSLQPEDIATYYCQQFDSLPHTFGQGTKLEIKGGGGSGGGGSGGGGSEVQLLESGGGLVQPGGSLRLSCAASGFTFSIYRMQWVRQAPGKGLEWVSGISPSGGTTWYADSVKGRFTISRDNSKNTLYLQMNSLRAEDTAVYYCARWSGGSGYAFDIWGQGTMVTVSSDDDKSFLEQKLISEEDLNSAVDHHHHHH
notes: Kabat positions
- Kd (1/sec), off-rate as tabulated (XWU092 = 1.00) (human IGF-1R(1-903)-Fc [1]): 1.16

B4: MJF016, C06 (VL/GS3/VH) scFv with VL D70E (scFv)
scFv: B3 scFv with N15V, D70E
notes: Kabat positions
- Kd (1/sec), off-rate as tabulated (XWU092 = 1.00) (human IGF-1R(1-903)-Fc [1]): 1.03

B5: MJF037, C06 (VL/GS3/VH) scFv with VL S72Y (scFv)
scFv: B3 scFv with N15V, S72Y
notes: Kabat positions
- Kd (1/sec), off-rate as tabulated (XWU092 = 1.00) (human IGF-1R(1-903)-Fc [1]): 0.76

B6: MJF040, C06 (VL/GS3/VH) scFv with VL I83M (scFv)
scFv: B3 scFv with N15V, I83M
notes: Kabat positions
- Kd (1/sec), off-rate as tabulated (XWU092 = 1.00) (human IGF-1R(1-903)-Fc [1]): 0.76

B7: MJF014, C06 (VL/GS3/VH) scFv with VL M4L (scFv)
scFv: B3 scFv with M4L, N15V
notes: Kabat positions
- Kd (1/sec), off-rate as tabulated (XWU092 = 1.00) (human IGF-1R(1-903)-Fc [1]): 0.86

B8: MJF025, C06 (VL/GS3/VH) scFv with VL V15P (scFv)
scFv: B3 scFv with N15P
notes: Kabat positions
- Kd (1/sec), off-rate as tabulated (XWU092 = 1.00) (human IGF-1R(1-903)-Fc [1]): 1.18

B9: MJF023, C06 (VL/GS3/VH) scFv with VL L11G, V15N (scFv)
scFv: B3 scFv with L11G
notes: Kabat positions
- Kd (1/sec), off-rate as tabulated (XWU092 = 1.00) (human IGF-1R(1-903)-Fc [1]): 0.68

B10: MJF051, C06 (VL/GS3/VH) scFv with VL S77G, I83Q (scFv)
scFv: B3 scFv with N15V, S77G, I83Q
notes: Kabat positions
- Kd (1/sec), off-rate as tabulated (XWU092 = 1.00) (human IGF-1R(1-903)-Fc [1]): 1.1

B11: MJF039, C06 (VL/GS3/VH) scFv with VL T20R, R30N, G63S, S72N (scFv)
scFv: B3 scFv with N15V, T20R, R30N, G63S, S72N
notes: Kabat positions
- Kd (1/sec), off-rate as tabulated (XWU092 = 1.00) (human IGF-1R(1-903)-Fc [1]): 0.56

B12: MJF017, C06 (VL/GS3/VH) scFv with VL T74S (scFv)
scFv: B3 scFv with N15V, T74S
notes: Kabat positions
- Kd (1/sec), off-rate as tabulated (XWU092 = 1.00) (human IGF-1R(1-903)-Fc [1]): 1.02

B13: MJF048, C06 (VL/GS3/VH) scFv with VH R83K (scFv, name in Kabat numbering)
scFv: B3 scFv with N15V, R209K
notes: Kabat positions
- Kd (1/sec), off-rate as tabulated (XWU092 = 1.00) (human IGF-1R(1-903)-Fc [1]): 1.37

B14: MJF035, C06 (VL/GS3/VH) scFv with VL S72N (scFv)
scFv: B3 scFv with N15V, S72N
notes: Kabat positions
- Kd (1/sec), off-rate as tabulated (XWU092 = 1.00) (human IGF-1R(1-903)-Fc [1]): 0.54

B15: MJF031, C06 (VL/GS3/VH) scFv with VL R30N (scFv)
scFv: B3 scFv with N15V, R30N
notes: Kabat positions
- Kd (1/sec), off-rate as tabulated (XWU092 = 1.00) (human IGF-1R(1-903)-Fc [1]): 0.59

B16: MJF047, C06 (VL/GS3/VH) scFv with VL I83G (scFv)
scFv: B3 scFv with N15V, I83G
notes: Kabat positions
- Kd (1/sec), off-rate as tabulated (XWU092 = 1.00) (human IGF-1R(1-903)-Fc [1]): 1.44

B17: MJF026, C06 (VL/GS3/VH) scFv with VL V15S; VH T110V (scFv, name in Kabat numbering)
scFv: B3 scFv with N15S, T239V
notes: Kabat positions
- Kd (1/sec), off-rate as tabulated (XWU092 = 1.00) (human IGF-1R(1-903)-Fc [1]): 0.99

B18: MJF022, C06 (VL/GS3/VH) scFv with VL V15R (scFv)
scFv: B3 scFv with N15R
notes: Kabat positions
- Kd (1/sec), off-rate as tabulated (XWU092 = 1.00) (human IGF-1R(1-903)-Fc [1]): 0.76

B19: MJF049, C06 (VL/GS3/VH) scFv with VH R83T (scFv, name in Kabat numbering)
scFv: B3 scFv with N15V, R209T
notes: Kabat positions
- Kd (1/sec), off-rate as tabulated (XWU092 = 1.00) (human IGF-1R(1-903)-Fc [1]): 1.41

B20: MJF027, C06 (VL/GS3/VH) scFv with VL Q24K (scFv)
scFv: B3 scFv with N15V, Q24K
notes: Kabat positions
- Kd (1/sec), off-rate as tabulated (XWU092 = 1.00) (human IGF-1R(1-903)-Fc [1]): 1.12

B21: MJF020, C06 (VL/GS3/VH) scFv with VL V15E (scFv)
scFv: B3 scFv with N15E
notes: Kabat positions
- Kd (1/sec), off-rate as tabulated (XWU092 = 1.00) (human IGF-1R(1-903)-Fc [1]): 0.76

B22: MJF050, C06 (VL/GS3/VH) scFv with VH T110V (scFv, name in Kabat numbering)
scFv: B3 scFv with N15V, T239V
notes: Kabat positions
- Kd (1/sec), off-rate as tabulated (XWU092 = 1.00) (human IGF-1R(1-903)-Fc [1]): 1.68

B23: MJF021, C06 (VL/GS3/VH) scFv with VL V15I (scFv)
scFv: B3 scFv with N15I
notes: Kabat positions
- Kd (1/sec), off-rate as tabulated (XWU092 = 1.00) (human IGF-1R(1-903)-Fc [1]): 0.81

B24: MJF029, C06 (VL/GS3/VH) scFv with VL T20R, R30Y (scFv)
scFv: B3 scFv with N15V, T20R, R30Y
notes: Kabat positions
- Kd (1/sec), off-rate as tabulated (XWU092 = 1.00) (human IGF-1R(1-903)-Fc [1]): 0.68

B25: MJF033, C06 (VL/GS3/VH) scFv with VL T20R, R30N; VH S21E (scFv, name in Kabat numbering)
scFv: B3 scFv with N15V, T20R, R30N, S143E
notes: Kabat positions
- Kd (1/sec), off-rate as tabulated (XWU092 = 1.00) (human IGF-1R(1-903)-Fc [1]): 0.78

B26: MJF034, C06 (VL/GS3/VH) scFv with VL A51G (scFv)
scFv: B3 scFv with N15V, A51G
notes: Kabat positions
- Kd (1/sec), off-rate as tabulated (XWU092 = 1.00) (human IGF-1R(1-903)-Fc [1]): 0.81

B27: MJF038, C06 (VL/GS3/VH) scFv with VL G63S, S72N (scFv)
scFv: B3 scFv with N15V, G63S, S72N
notes: Kabat positions
- Kd (1/sec), off-rate as tabulated (XWU092 = 1.00) (human IGF-1R(1-903)-Fc [1]): 0.76

B28: MJF024, C06 (VL/GS3/VH) scFv with VL V15A (scFv)
scFv: B3 scFv with N15A
notes: Kabat positions
- Kd (1/sec), off-rate as tabulated (XWU092 = 1.00) (human IGF-1R(1-903)-Fc [1]): 0.89

B29: MJF043, C06 (VL/GS3/VH) scFv with VL I83D (scFv)
scFv: B3 scFv with N15V, I83D
notes: Kabat positions
- Kd (1/sec), off-rate as tabulated (XWU092 = 1.00) (human IGF-1R(1-903)-Fc [1]): 1.12

B30: MJF042, C06 (VL/GS3/VH) scFv with VL S77G, I83G (scFv)
scFv: B3 scFv with N15V, S77G, I83G
notes: Kabat positions
- Kd (1/sec), off-rate as tabulated (XWU092 = 1.00) (human IGF-1R(1-903)-Fc [1]): 0.55

B31: MJF015, C06 (VL/GS3/VH) scFv with VH W47F (scFv, name in Kabat numbering)
scFv: B3 scFv with N15V, W169F
notes: Kabat positions
- Kd (1/sec), off-rate as tabulated (XWU092 = 1.00) (human IGF-1R(1-903)-Fc [1]): 1.37

B32: M14-C03 antibody (antibody, V domains shown)
VH: EVQLLESGGGLVQPGGSLRLSCAASGFTFSKYMMSWVRQAPGKGLEWVSYISPSGGLTWYADSVKGRFTISRDNSKNTLYLQMNSLRAEDTAVYYCARDGARGYGMDVWGQGTTVTVSS
VL: DIQMTQSPATLSLSPGERATLSCRASQSVSSYLAWYQQKPGQAPRLLIYDASNRATGIPARFSGSGSGTDFTLTISSLEPEDFAVYYCQQRSNWPPEVTFGPGTKVDIK
notes: Fully human full-length antibody (ATCC PTA-7445); also called M14.C03.G4.P.agly
- IC50 (read off the curve) (human IGF-1R(1-903)-Fc [2]): ~5 nM
- IC50 (read off the curve) (human IGF-1R(1-903)-Fc [3]): ~1 nM
- binding result [4]: no binding
